# Assay results taken from PMC9482650, “Quantitative fragmentomics allow affinity mapping of interactomes” (Nature Communications, 2022).
# T1: MPDZ_10, O75970
# T1 sequence (O75970 1624-1722, limits assumed, looked up): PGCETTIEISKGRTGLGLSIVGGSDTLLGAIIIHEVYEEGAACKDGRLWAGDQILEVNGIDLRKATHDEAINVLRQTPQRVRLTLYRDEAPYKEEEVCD
# T2: DLG3_2, Q92796
# T2 sequence (Q92796 221-321, limits assumed, looked up): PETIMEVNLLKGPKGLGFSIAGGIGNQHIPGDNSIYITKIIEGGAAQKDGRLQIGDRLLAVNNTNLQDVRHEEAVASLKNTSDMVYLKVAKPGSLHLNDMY
# T3: DLG3_1, Q92796
# T3 sequence (Q92796 125-227, limits assumed, looked up): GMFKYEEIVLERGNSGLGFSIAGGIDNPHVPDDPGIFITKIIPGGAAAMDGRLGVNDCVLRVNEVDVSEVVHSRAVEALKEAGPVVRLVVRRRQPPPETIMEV
# T4: LIN7B, Q9HAP6
# T4 sequence (Q9HAP6 88-185, limits assumed, looked up): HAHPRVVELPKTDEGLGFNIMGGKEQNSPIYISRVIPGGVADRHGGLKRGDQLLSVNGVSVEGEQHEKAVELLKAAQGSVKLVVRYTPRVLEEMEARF
# T5: MPDZ_12, O75970
# T5 sequence (O75970 1857-1958, limits assumed, looked up): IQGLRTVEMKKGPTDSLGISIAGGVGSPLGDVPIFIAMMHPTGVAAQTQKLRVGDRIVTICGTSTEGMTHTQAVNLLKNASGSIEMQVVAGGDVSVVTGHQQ
# T6: NHERF3_3, Q5T2W1
# T6 sequence (Q5T2W1 238-333, limits assumed, looked up): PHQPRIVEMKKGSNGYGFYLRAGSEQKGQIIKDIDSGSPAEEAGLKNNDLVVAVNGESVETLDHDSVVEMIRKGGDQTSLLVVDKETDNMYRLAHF
# T7: SIPA1L2, Q9P2F8
# T7 sequence (Q9P2F8 945-1036, limits assumed, looked up): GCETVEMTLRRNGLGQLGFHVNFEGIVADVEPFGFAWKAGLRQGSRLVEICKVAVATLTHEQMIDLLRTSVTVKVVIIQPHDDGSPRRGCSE
# T8: MPDZ_5, O75970
# T8 sequence (O75970 695-796, limits assumed, looked up): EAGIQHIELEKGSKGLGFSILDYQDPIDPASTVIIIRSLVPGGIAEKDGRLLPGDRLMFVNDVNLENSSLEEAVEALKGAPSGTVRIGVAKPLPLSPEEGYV
# T9: DFNB31_1, Q9P202
# T9 sequence (Q9P202 135-233, limits assumed, looked up): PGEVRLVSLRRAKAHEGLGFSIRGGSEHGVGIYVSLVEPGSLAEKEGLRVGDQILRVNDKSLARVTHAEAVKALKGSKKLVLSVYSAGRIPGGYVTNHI
# T10: SNTG2, Q9NY99
# T10 sequence (Q9NY99 68-166, limits assumed, looked up): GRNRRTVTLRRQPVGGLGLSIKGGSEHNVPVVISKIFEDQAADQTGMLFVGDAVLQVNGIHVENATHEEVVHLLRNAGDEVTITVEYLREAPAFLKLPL
# T11: PDZRN3_1, Q9UPQ7
# T11 sequence (Q9UPQ7 244-349, limits assumed, looked up): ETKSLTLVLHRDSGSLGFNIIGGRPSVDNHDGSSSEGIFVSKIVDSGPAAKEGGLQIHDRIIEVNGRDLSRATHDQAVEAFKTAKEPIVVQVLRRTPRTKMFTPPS
# T12: RAPGEF6, Q8TEU7
# T12 sequence (Q8TEU7 525-625, limits assumed, looked up): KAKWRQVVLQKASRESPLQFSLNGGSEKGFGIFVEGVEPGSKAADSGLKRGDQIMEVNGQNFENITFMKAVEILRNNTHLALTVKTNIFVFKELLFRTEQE
# Target: T1, MPDZ_10, O75970
# Experiment: holdup assay
# Design: key: below the threshold = too weak to quantify, mostly under pKd 3.1 to 4
# Conditions: plain residues with an end cap or a label only (N-terminal biotin on a linker: ado-ado)
row,Binder,pKd
1,"LAHVKHKEQI [AQP3, Q92482]",below the threshold
2,"APIAGFSSFV [SDK2, Q58EX2]",below the threshold

# Target: AHNAK1, Q09666
# Sequence (Q09666 4-100): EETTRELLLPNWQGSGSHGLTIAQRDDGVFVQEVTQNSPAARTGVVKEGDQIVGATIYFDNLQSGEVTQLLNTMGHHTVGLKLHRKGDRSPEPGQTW
# Experiment: holdup assay
# Design: key: below the threshold = too weak to quantify, mostly under pKd 3.1 to 4
# Conditions: plain residues with an end cap or a label only (N-terminal biotin on a linker: ado-ado)
row,Binder,pKd
1,"LAHVKHKEQI [AQP3, Q92482]",below the threshold
2,"APIAGFSSFV [SDK2, Q58EX2]",below the threshold

# Target: T2, DLG3_2, Q92796
# Experiment: holdup assay
# Design: key: below the threshold = too weak to quantify, mostly under pKd 3.1 to 4
# Conditions: plain residues with an end cap or a label only (N-terminal biotin on a linker: ado-ado)
row,Binder,pKd
1,"LAHVKHKEQI [AQP3, Q92482]",below the threshold
2,"APIAGFSSFV [SDK2, Q58EX2]",4.07

# Target: Inadl_5, Q8NI35
# Sequence (Q8NI35 673-780): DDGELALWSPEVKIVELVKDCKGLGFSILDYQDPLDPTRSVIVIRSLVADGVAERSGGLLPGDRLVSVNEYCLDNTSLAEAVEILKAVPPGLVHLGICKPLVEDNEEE
# Experiment: holdup assay
# Design: key: below the threshold = too weak to quantify, mostly under pKd 3.1 to 4
# Conditions: plain residues with an end cap or a label only (N-terminal biotin on a linker: ado-ado)
row,Binder,pKd
1,"LAHVKHKEQI [AQP3, Q92482]",below the threshold
2,"APIAGFSSFV [SDK2, Q58EX2]",3.82

# Target: SCRIB_1, Q14160
# Sequence (Q14160 718-814): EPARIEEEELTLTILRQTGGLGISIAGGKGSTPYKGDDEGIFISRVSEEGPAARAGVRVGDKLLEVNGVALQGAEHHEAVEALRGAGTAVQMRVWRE
# Experiment: holdup assay
# Design: key: below the threshold = too weak to quantify, mostly under pKd 3.1 to 4
# Conditions: plain residues with an end cap or a label only (N-terminal biotin on a linker: ado-ado)
row,Binder,pKd
1,"LAHVKHKEQI [AQP3, Q92482]",below the threshold
2,"APIAGFSSFV [SDK2, Q58EX2]",below the threshold

# Target: SNX27, Q96L92
# Experiment: holdup assay
# Design: key: below the threshold = too weak to quantify, mostly under pKd 3.1 to 4
# Conditions: plain residues with an end cap or a label only (N-terminal biotin on a linker: ado-ado)
row,Binder,pKd
1,"LAHVKHKEQI [AQP3, Q92482]",below the threshold
2,"APIAGFSSFV [SDK2, Q58EX2]",4.38

# Target: T3, DLG3_1, Q92796
# Experiment: holdup assay
# Design: key: below the threshold = too weak to quantify, mostly under pKd 3.1 to 4
# Conditions: plain residues with an end cap or a label only (N-terminal biotin on a linker: ado-ado)
row,Binder,pKd
1,"LAHVKHKEQI [AQP3, Q92482]",below the threshold
2,"APIAGFSSFV [SDK2, Q58EX2]",3.88

# Target: T4, LIN7B, Q9HAP6
# Experiment: holdup assay
# Design: key: below the threshold = too weak to quantify, mostly under pKd 3.1 to 4
# Conditions: plain residues with an end cap or a label only (N-terminal biotin on a linker: ado-ado)
row,Binder,pKd
1,"LAHVKHKEQI [AQP3, Q92482]",below the threshold
2,"APIAGFSSFV [SDK2, Q58EX2]",below the threshold

# Target: T5, MPDZ_12, O75970
# Experiment: holdup assay
# Design: key: below the threshold = too weak to quantify, mostly under pKd 3.1 to 4
# Conditions: plain residues with an end cap or a label only (N-terminal biotin on a linker: ado-ado)
row,Binder,pKd
1,"LAHVKHKEQI [AQP3, Q92482]",below the threshold
2,"APIAGFSSFV [SDK2, Q58EX2]",4.37

# Target: T6, NHERF3_3, Q5T2W1
# Experiment: holdup assay
# Design: key: below the threshold = too weak to quantify, mostly under pKd 3.1 to 4
# Conditions: plain residues with an end cap or a label only (N-terminal biotin on a linker: ado-ado)
row,Binder,pKd
1,"LAHVKHKEQI [AQP3, Q92482]",below the threshold
2,"APIAGFSSFV [SDK2, Q58EX2]",below the threshold

# Target: Inadl_3, Q8NI35
# Sequence (Q8NI35 359-469): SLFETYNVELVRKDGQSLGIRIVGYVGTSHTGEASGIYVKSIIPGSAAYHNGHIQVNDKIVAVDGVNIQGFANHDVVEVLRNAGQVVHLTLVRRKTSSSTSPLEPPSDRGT
# Experiment: holdup assay
# Design: key: below the threshold = too weak to quantify, mostly under pKd 3.1 to 4
# Conditions: plain residues with an end cap or a label only (N-terminal biotin on a linker: ado-ado)
row,Binder,pKd
1,"LAHVKHKEQI [AQP3, Q92482]",below the threshold
2,"APIAGFSSFV [SDK2, Q58EX2]",3.86

# Target: TJP1_3, Q07157
# Sequence (Q07157 416-512): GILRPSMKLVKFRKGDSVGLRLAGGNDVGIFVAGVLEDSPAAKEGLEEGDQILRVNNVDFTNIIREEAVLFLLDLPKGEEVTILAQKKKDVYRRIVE
# Experiment: holdup assay
# Design: key: below the threshold = too weak to quantify, mostly under pKd 3.1 to 4
# Conditions: plain residues with an end cap or a label only (N-terminal biotin on a linker: ado-ado)
row,Binder,pKd
1,"LAHVKHKEQI [AQP3, Q92482]",below the threshold
2,"APIAGFSSFV [SDK2, Q58EX2]",below the threshold

# Target: NHERF4_4, Q86UT5
# Sequence (Q86UT5 464-550): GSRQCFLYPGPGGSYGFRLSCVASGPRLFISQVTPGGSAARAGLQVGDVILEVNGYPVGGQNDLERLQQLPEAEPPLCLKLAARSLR
# Experiment: holdup assay
# Design: key: below the threshold = too weak to quantify, mostly under pKd 3.1 to 4
# Conditions: plain residues with an end cap or a label only (N-terminal biotin on a linker: ado-ado)
row,Binder,pKd
1,"LAHVKHKEQI [AQP3, Q92482]",below the threshold
2,"APIAGFSSFV [SDK2, Q58EX2]",below the threshold

# Target: T7, SIPA1L2, Q9P2F8
# Experiment: holdup assay
# Design: key: below the threshold = too weak to quantify, mostly under pKd 3.1 to 4
# Conditions: plain residues with an end cap or a label only (N-terminal biotin on a linker: ado-ado)
row,Binder,pKd
1,"LAHVKHKEQI [AQP3, Q92482]",below the threshold
2,"APIAGFSSFV [SDK2, Q58EX2]",below the threshold

# Target: DLG1_3, Q12959
# Sequence (Q12959 457-571): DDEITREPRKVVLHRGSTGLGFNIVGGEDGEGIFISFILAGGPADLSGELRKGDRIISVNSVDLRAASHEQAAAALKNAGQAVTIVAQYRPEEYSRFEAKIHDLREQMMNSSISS
# Experiment: holdup assay
# Design: key: below the threshold = too weak to quantify, mostly under pKd 3.1 to 4
# Conditions: plain residues with an end cap or a label only (N-terminal biotin on a linker: ado-ado)
row,Binder,pKd
1,"LAHVKHKEQI [AQP3, Q92482]",below the threshold
2,"APIAGFSSFV [SDK2, Q58EX2]",below the threshold

# Target: FRMPD2_3, Q68DX3
# Sequence (Q68DX3 1073-1166): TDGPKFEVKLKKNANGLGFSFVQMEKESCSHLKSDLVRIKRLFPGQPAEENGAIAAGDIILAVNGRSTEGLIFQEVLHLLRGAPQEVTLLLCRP
# Experiment: holdup assay
# Design: key: below the threshold = too weak to quantify, mostly under pKd 3.1 to 4
# Conditions: plain residues with an end cap or a label only (N-terminal biotin on a linker: ado-ado)
row,Binder,pKd
1,"LAHVKHKEQI [AQP3, Q92482]",below the threshold
2,"APIAGFSSFV [SDK2, Q58EX2]",below the threshold

# Target: T8, MPDZ_5, O75970
# Experiment: holdup assay
# Design: key: below the threshold = too weak to quantify, mostly under pKd 3.1 to 4
# Conditions: plain residues with an end cap or a label only (N-terminal biotin on a linker: ado-ado)
row,Binder,pKd
1,"LAHVKHKEQI [AQP3, Q92482]",below the threshold
2,"APIAGFSSFV [SDK2, Q58EX2]",below the threshold

# Target: T9, DFNB31_1, Q9P202
# Experiment: holdup assay
# Design: key: below the threshold = too weak to quantify, mostly under pKd 3.1 to 4
# Conditions: plain residues with an end cap or a label only (N-terminal biotin on a linker: ado-ado)
row,Binder,pKd
1,"LAHVKHKEQI [AQP3, Q92482]",below the threshold
2,"APIAGFSSFV [SDK2, Q58EX2]",3.79

# Target: T10, SNTG2, Q9NY99
# Experiment: holdup assay
# Design: key: below the threshold = too weak to quantify, mostly under pKd 3.1 to 4
# Conditions: plain residues with an end cap or a label only (N-terminal biotin on a linker: ado-ado)
row,Binder,pKd
1,"LAHVKHKEQI [AQP3, Q92482]",below the threshold
2,"APIAGFSSFV [SDK2, Q58EX2]",below the threshold

# Target: T11, PDZRN3_1, Q9UPQ7
# Experiment: holdup assay
# Design: key: below the threshold = too weak to quantify, mostly under pKd 3.1 to 4
# Conditions: plain residues with an end cap or a label only (N-terminal biotin on a linker: ado-ado)
row,Binder,pKd
1,"LAHVKHKEQI [AQP3, Q92482]",below the threshold
2,"APIAGFSSFV [SDK2, Q58EX2]",3.78

# Target: GRID2IP_1, A4D2P6
# Sequence (A4D2P6 1-87): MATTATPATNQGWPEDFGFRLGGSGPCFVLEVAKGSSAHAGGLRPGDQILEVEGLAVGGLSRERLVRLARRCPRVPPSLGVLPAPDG
# Experiment: holdup assay
# Design: key: below the threshold = too weak to quantify, mostly under pKd 3.1 to 4
# Conditions: plain residues with an end cap or a label only (N-terminal biotin on a linker: ado-ado)
row,Binder,pKd
1,"LAHVKHKEQI [AQP3, Q92482]",below the threshold
2,"APIAGFSSFV [SDK2, Q58EX2]",below the threshold

# Target: LDB3, O75112
# Sequence (O75112 1-94): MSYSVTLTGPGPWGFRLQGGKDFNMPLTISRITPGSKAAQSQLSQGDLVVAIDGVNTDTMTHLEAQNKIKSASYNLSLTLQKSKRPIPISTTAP
# Experiment: holdup assay
# Design: key: below the threshold = too weak to quantify, mostly under pKd 3.1 to 4
# Conditions: plain residues with an end cap or a label only (N-terminal biotin on a linker: ado-ado)
row,Binder,pKd
1,"LAHVKHKEQI [AQP3, Q92482]",below the threshold
2,"APIAGFSSFV [SDK2, Q58EX2]",below the threshold

# Target: T12, RAPGEF6, Q8TEU7
# Experiment: holdup assay
# Design: key: below the threshold = too weak to quantify, mostly under pKd 3.1 to 4
# Conditions: plain residues with an end cap or a label only (N-terminal biotin on a linker: ado-ado)
row,Binder,pKd
1,"LAHVKHKEQI [AQP3, Q92482]",below the threshold
2,"APIAGFSSFV [SDK2, Q58EX2]",below the threshold

# Target: NHERF4_2, Q86UT5
# Sequence (Q86UT5 220-308): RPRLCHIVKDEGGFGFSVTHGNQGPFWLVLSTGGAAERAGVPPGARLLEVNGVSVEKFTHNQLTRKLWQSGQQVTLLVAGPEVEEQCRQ
# Experiment: holdup assay
# Design: key: below the threshold = too weak to quantify, mostly under pKd 3.1 to 4
# Conditions: plain residues with an end cap or a label only (N-terminal biotin on a linker: ado-ado)
row,Binder,pKd
1,"LAHVKHKEQI [AQP3, Q92482]",below the threshold
2,"APIAGFSSFV [SDK2, Q58EX2]",below the threshold
